The values that follow come from PMC10028609.

Test [1] concerns the target His6-MBP-OspR fusion (Kamptonema sp. (formerly Oscillatoria) PCC 6506).
For test [2] the target is unchanged. The source holds these as a separate data set.
In test [3] the target is OspR, untagged (peptide arginase from Kamptonema sp. PCC 6506) (Kamptonema sp. (formerly Oscillatoria) PCC 6506). The test is described as follows: SEC; analytical size exclusion chromatography of OspR in solution (Figure S18); conditions in the SI.

Regarding “His6-OspA precursor protein, unmodified (natural protein)”, the KM of OspR toward unmodified OspA, Michaelis–Menten kinetics by urea detection assay (50 mM TRIS-HCl pH 8.5, 1 mM MnCl2, 25 °C) in test [1] is 9.01 μM.
With “His6-OspA^MD, fully cyclized-and-epimerized OspA precursor protein (natural protein)”, in test [2], the KM of OspR toward cyclized-and-epimerized OspA^MD, Michaelis–Menten kinetics by urea detection assay (50 mM TRIS-HCl pH 8.5, 1 mM MnCl2, 25 °C) is 6.33 μM.
For “OspR, untagged (peptide arginase from Kamptonema sp. PCC 6506) (enzyme)”, the stoichiometry N in test [3] stood at 2.
